Test results as given in EP3085709A1 (Genor Biopharma Co., Ltd, dated 2016).
Residue numbers refer to the chain shown, from its start. In names and notes the source's numbering stands. One block for each binder: values may come before it.

Assays:
[1] = biological target: T1, recombinant human RANKL (soluble, Gly136-Asp317, N-terminal 10 His, expressed in CHO cells) (human, UniProt O14788 136-317); assay: direct ELISA, human RANKL coated 1 µg/ml
T1 construct: residues between secretion signal and His tag are not described; also called hRANKL; hRNAKL
T1 sequence: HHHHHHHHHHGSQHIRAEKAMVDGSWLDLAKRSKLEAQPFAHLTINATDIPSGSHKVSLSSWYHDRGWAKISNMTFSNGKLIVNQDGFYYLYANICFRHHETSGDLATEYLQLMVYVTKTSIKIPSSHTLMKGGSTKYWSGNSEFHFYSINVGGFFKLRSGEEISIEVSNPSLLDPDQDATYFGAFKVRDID

[2] = biological target: T2, mouse RANKL (R & D Systems) (mouse, UniProt O35235 158-316, limits assumed); assay: direct ELISA, mouse RANKL coated 1 µg/ml
T2 construct: also called murine RANKL
T2 sequence (looked up): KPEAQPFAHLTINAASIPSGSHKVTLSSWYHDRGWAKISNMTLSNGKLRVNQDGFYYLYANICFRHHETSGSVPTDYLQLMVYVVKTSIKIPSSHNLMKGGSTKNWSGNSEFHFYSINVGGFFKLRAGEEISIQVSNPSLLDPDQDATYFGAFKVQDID

[3] = biological target: T3, monkey RANKL (cynomolgus monkey, R & D Systems) (cynomolgus monkey, UniProt A0A7N9DBU4 140-317); assay: direct ELISA, monkey RANKL coated
T3 construct: also called cynomolgus monkey RANKL
T3 sequence: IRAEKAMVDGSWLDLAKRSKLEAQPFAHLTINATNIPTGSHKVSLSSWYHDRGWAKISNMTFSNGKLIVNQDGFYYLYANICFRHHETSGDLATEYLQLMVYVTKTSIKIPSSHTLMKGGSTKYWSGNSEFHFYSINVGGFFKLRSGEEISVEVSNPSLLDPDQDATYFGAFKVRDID

[4] = biological target: T1, recombinant human RANKL (soluble, …); assay: competitive ELISA, RANK-Fc coated, antibody mixed with human RANKL (0.6 µg/ml, equal volume)
[5] = biological target: T1, recombinant human RANKL (soluble, …); assay: cell-based or functional assay
[6] = biological target: T1, recombinant human RANKL (soluble, …); assay: cell-based or functional assay; remark: listed apart in the source
[7] = biological target: T1, recombinant human RANKL (soluble, …); assay: competitive ELISA, RANK-Fc coated, antibody pre-incubated with 0.25 µg/ml hRANKL; Plate#02
[8] = biological target: T1, recombinant human RANKL (soluble, …); assay: ELISA, hRANKL coated 1 µg/ml; concentration at 50% Bmax; Plate#02
[9] = biological target: T1, recombinant human RANKL (soluble, …); assay: competitive ELISA, RANK-Fc coated, antibody pre-incubated with 0.25 µg/ml hRANKL; Plate#01
[10] = biological target: T1, recombinant human RANKL (soluble, …); assay: ELISA, hRANKL coated 1 µg/ml; concentration at 50% Bmax; Plate#01

B1: 114-7.19.12 (antibody, V domains shown)
VH: QVQLQQSGAELASPGASVKLSCKASGYTFTTYWLQWVKQRPGQGLEWIGAIYPGPGNTKYTQKFKDKATLTADKSASTAYMQLNSLTSEDSAVYYCARRGSRRGIAYWGQGTLVTVSA
VL: NIVLTQSPASLAVSLGQRATISCRASESVDSYGRSFMHWYQQRPGQPPTLLIYLASNLESGVPVRFSGSGSRTDFTLTIDPVEADDAATYYCQQDNEDPYTFGGGTKLEIK
notes: Murine monoclonal antibody purified from hybridoma supernatant
EC50 [1]: 0.00993 µg/mL | binding result [2]: no binding | EC50 [3]: 0.0129 µg/mL | EC50 [4]: 0.28 µg/mL | EC50 value (ng/ml), inhibition of RAW264.7 differentiation [5]: 267 ng/mL

B2: 114-7.37.26 (antibody, V domains shown)
VH: B1 VH with A24T, N84S
VL: B1 VL with V64A
notes: Murine monoclonal antibody from hybridoma
EC50 [1]: 0.0159 µg/mL | binding result [2]: no binding | EC50 [3]: 0.016 µg/mL | EC50 [4]: 0.29 µg/mL | EC50 value (ng/ml), inhibition of RAW264.7 differentiation [5]: 470 ng/mL

B3: G12 (antibody, human IgG2, kappa, V domains shown)
VH: QVQLVQSGAELKKPGASVKLSCKASGYTFTTYWLQWVRQAPGQGLEWMGAIYPGPGNTKYTQKFKDRFTITADTSKSTAYMQLNSLKSEDSAVYYCARRGSRRGIAYWGQGTLVTVSA
VL: NIVLTQSPASLSVSLGQRATISCRASESVDSYGRSFMHWYQQRPGQAPKLLIYLASNLESGVPARFSGSGSRTDFTLTISSVEAEDEATYYCQQDNEDPYTFGGGTKLEIKG
notes: 293F cells
IC50 (ng/ml) in RAW264.7 cells [6]: ~1060 ng/mL | IC50 [7]: 0.36 µg/mL | EC50 [8]: 0.00175 µg/mL

B4: G1 (antibody, human IgG2, kappa, V domains shown)
VH: B1 VH
VL: B3 VL with S12A, A47P, K49T, A64V, S80D, S81P, E85D, E87A
notes: expressed in 293F cells; also called murine antibody G1; mouse antibody (G1)
IC50 [9]: 0.18 µg/mL | IC50 [7]: ~0.35 µg/mL | EC50 [10]: 0.00147 µg/mL | EC50 [8]: 0.00188 µg/mL

B5: G13 (antibody, human IgG2, kappa, V domains shown)
VH: B3 VH
VL: B3 VL with R43K, A64S, S81R, E87A
notes: 293F cells
IC50 [7]: 0.31 µg/mL | EC50 [8]: 0.00234 µg/mL

B8: G6 (antibody, human IgG2, kappa, V domains shown)
VH: B3 VH with K12V, K13Q, A40T, F68V, K76T, K87R
VL: B3 VL with K49R
notes: 293F cells
IC50 [9]: 0.29 µg/mL | EC50 [10]: 0.00147 µg/mL

B10: G11 (antibody, human IgG2, kappa, V domains shown)
VH: B3 VH
VL: B3 VL with R43K, A64S, S81A, E87A
notes: 293F cells
IC50 [7]: 0.19 µg/mL | EC50 [8]: 0.0019 µg/mL

B11: G7 (antibody, human IgG2, kappa, V domains shown)
VH: B3 VH with K12V, K13Q, A40T, F68V, K76T, K87R
VL: B3 VL with R43K, A64S, S81A, E87A
notes: 293F cells
IC50 [9]: 0.29 µg/mL | EC50 [10]: 0.00182 µg/mL

B12: G9 (antibody, human IgG2, kappa, V domains shown)
VH: B3 VH with K12V, K13Q, A40T, F68V, K76T, K87R
VL: B3 VL with R43K, A64S, S81R, E87A
notes: 293F cells
IC50 [7]: 0.5 µg/mL | EC50 [8]: 0.00328 µg/mL

B16: 114-2.402 (antibody, V domains shown)
VH: EVQLQQSGTELVKPGASVKLSCTLFGFNIKATYMHWVRQRPEQGLEWIGRIDPPNGNTKYDPKFQDKATIKVDTSSNTAYLQLSSLTSEDTAVYYCAREFNRYDVWLAYWGQGTLVTVSA
VL: DIQMTQTTSSLSASLGDRVTISCSASQGVSNYLNWYQQKPDGTVKLLIYSTSSLHSGVPSRFSGSGSGTDYSLTISNLEPEDVATYYCQQYSKLPFTFGSGTKLEIKR
notes: as for B2
EC50 [1]: 0.0112 µg/mL | binding result [2]: no binding | EC50 [3]: 0.0111 µg/mL | EC50 [4]: 0.93 µg/mL | EC50 value (ng/ml), inhibition of RAW264.7 differentiation [5]: 396 ng/mL

B19: 114-6.6.29 (antibody, V domains shown)
VH: DVKLVESGGGLVKPGGSLKLSCAASGFTFSSYTMSWVRQTPEKRLEWVATISSGGSYTYYPDSVKGRFTISRDNAKNTLYLQMSSLKSEDTAMYYCTRDWDYYGTTYVGGYAMDYWGQGTSVTVSS
VL: DVLMTQTPLSLPVSLGDQASISCRSSQSIVHSNGNTYLEWYLQKPGQSPKLLIYKVSNRFSGVPDRFSGSGSGTDFTLKISRVEAEDLGVYYCFQGSHVPWTFGGGTKLEIK
notes: as for B2
EC50 [1]: 0.0117 µg/mL | binding result [2]: no binding | EC50 [3]: 0.0104 µg/mL | EC50 [4]: 0.39 µg/mL | EC50 value (ng/ml), inhibition of RAW264.7 differentiation [5]: 799 ng/mL

Results, then the binder that gave them:

IC50 [9]: 0.29 µg/mL | EC50 [10]: 0.00221 µg/mL
B6: G5 (antibody, human IgG2, kappa, V domains shown)
VH: B3 VH with T74K
VL: B3 VL with R43K, A64S, S81R, E87A
notes: 293F cells

IC50 [9]: 0.31 µg/mL | EC50 [10]: 0.00187 µg/mL
B7: G3 (antibody, human IgG2, kappa, V domains shown)
VH: B3 VH with T74K
VL: B3 VL with R43K, A64S, S81A, E87A
notes: 293F cells

IC50 [9]: 0.3 µg/mL | EC50 [10]: 0.00255 µg/mL
B9: G2 (antibody, human IgG2, kappa, V domains shown)
VH: B3 VH with T74K
VL: B3 VL with K49R
notes: 293F cells

IC50 [9]: ~0.36 µg/mL | IC50 (ng/ml) in RAW264.7 cells [6]: ~1080 ng/mL | EC50 [10]: 0.00195 µg/mL
B13: G4 (antibody, human IgG2, kappa, V domains shown)
VH: B3 VH with T74K
VL: B3 VL
notes: 293F cells

EC50 [1]: 0.0137 µg/mL | binding result [2]: no binding | EC50 [3]: 0.0153 µg/mL | EC50 [4]: 0.8 µg/mL | EC50 value (ng/ml), inhibition of RAW264.7 differentiation [5]: 311 ng/mL
B14: 114-2.222 (antibody, V domains shown)
VH: EVQLQQSGAELVKPGASVKLSCTTSGFNIKATYIHWVQQRPEQGLEWIGRIDPANGNTKYDSKFQGKATITADTSSNTAYLQLSSLTSEDTAVYFCARSLHYYVFFDYWGQGTTLTVSS
VL: B16 VL with V29I, N77S, V83I, F96L, S100A, I106L
notes: as for B2

EC50 [1]: 0.0118 µg/mL | binding result [2]: no binding | EC50 [3]: 0.00967 µg/mL | EC50 [4]: 0.28 µg/mL | EC50 value (ng/ml), inhibition of RAW264.7 differentiation [5]: 340 ng/mL
B15: 114-5.9.4 (antibody, V domains shown)
VH: EVQLQQSGAELVKPGASVKLSCTASGFNLKGTYIHWVKQRPGQGLEWIGRIDPANANTKYDPKFQGKATIRTDTSSNTAYLQLSSLTSEDTAVYFCSSPSGHYDVWFAYWGQGTLVTVSP
VL: DIQMTQPTSSLSASLGDTVTISCSASQDISNYLNWYQQKPDGTLKLLIYYTSSLHSGVPSRFSGSGSGTDYSLTISNLEPEDIATYYCQQFSKLPLTFGAGTKLELKR
notes: as for B2

EC50 [1]: 0.0185 µg/mL | binding result [2]: no binding | EC50 [3]: 0.0198 µg/mL | EC50 [4]: 0.93 µg/mL | EC50 value (ng/ml), inhibition of RAW264.7 differentiation [5]: 585 ng/mL
B17: 114-7.38.48 (antibody, V domains shown)
VH: DVQLQESGPDLVKPSQSLSLTCTVTGYSITSAYSWHWIRQFPGNKLEWMGYIHFSGVTNYNPSLKSRISITRDASKNQFFLQLSSVTTEDTATYYCATRRETGFTYWGQGTLVTVSA
VL: DIVLTQSPATLSVTPGDSVSLSCRASQSISKNLHWYQQKSHESPRLLIKYASQSISGIPSRFSGSGSGTDFTLSINSVETEDFGIYFCQQINSWPLTFGAGTKLELK
notes: as for B2

EC50 [1]: 0.00623 µg/mL | binding result [2]: no binding | EC50 [3]: 0.00686 µg/mL | EC50 [4]: 0.33 µg/mL | EC50 value (ng/ml), inhibition of RAW264.7 differentiation [5]: 315 ng/mL
B18: 114-5.7.14 (antibody, V domains shown)
VH: EVQLQQSGAELVKPGASVKLSCTASGFKIKDTYMHWVRQRPEQGLEWIGRIDSANGNIKYDPKFQGKATITADTSSKTAYLHLSSLTFEDTAVYYCSRPKSNYDFWLPYWGQGTLVTVSA
VL: DIQMTQTTSSLSASLGDRVTISCSASQGISNYLNWYQQKPDGTVKLLIYYTSSLHSGVPSRFSGSGSGTDYSLTISNLEPEDIATYYCQQYSKLPLTFGAGTKLELK
notes: as for B2
